Laboratory results published in US20040138106A1.

Target: Gly4→Compound A mutant myoglobin (myoglobin containing β-O-GlcNAc-L-serine at position 4, C-terminal His6 tag) (UniProt P02185)
Assay: ELISA-like assay: 200 ng myoglobin immobilized, biotinylated BSII, streptavidin-alkaline phosphatase, p-nitrophenyl phosphate, A405

Gly4→Compound A mutant myoglobin (myoglobin containing β-O-GlcNAc-L-serine at position 4, C-terminal His6 tag), sequence (P02185 other isoform, or with tags, fused parts or gaps mutant): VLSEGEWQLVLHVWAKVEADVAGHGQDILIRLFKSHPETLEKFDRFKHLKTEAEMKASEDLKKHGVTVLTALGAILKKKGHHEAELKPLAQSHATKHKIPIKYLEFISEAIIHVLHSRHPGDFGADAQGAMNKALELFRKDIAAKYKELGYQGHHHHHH

fold signal (A405) against wild-type myoglobin: > 200 fold
Substance: GlcNAc-specific lectin, Bandeiraea simplicifolia II (BSII), biotinylated
